Source: PMC3477299 (ACS chemical biology, 2012)
Where two headings read alike, the source gives them in different places.

Key:
[1] = molecular target: T1, N-terminal His-tagged Human 4RON tau (human, UniProt P10636-6 1-383); assay: ELISA
[2] = molecular target: T1, N-terminal His-tagged Human 4RON tau; assay: ELISA; remark: listed apart in the source

B1: Hsp90β (HSP90AB1) (natural protein)
chain: not shown
With B1 the IC50 [1] was 59 µM and the IC50 [2] was 3 µM.
